Measurements published in the supplement of paper PMC9732359.
± gives the uncertainty stated by the source.

Assay: protein stability index of a GFP-peptide fusion (yeast GPS) (PSI 1-4); higher = more stable; sorted into four equal gates, so the index is relative within each strain
Summary of the method: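 Tiled 17-residue yeast protein peptides were fused downstream of GFP in a plasmid that also expresses Cherry, and the pooled library was carried in yeast. Mid-log cultures in leucine-free medium were sorted into four equal gates by GFP/Cherry fluorescence ratio, and plasmids from each gate were PCR-amplified and Illumina-sequenced, with reads assigned to strains by barcodes. The protein stability index for each peptide was each gate's read frequency times its gate number, summed.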

Sequence | protein stability index (doa10∆) | protein stability index (pdr5∆) | protein stability index (san1∆) | protein stability index (ubr1∆)
STAAAPIAAPKKPRKPR [PGD1] | 2.72 ± 0.086 | 3.11 ± 0.076 | 2.75 ± 0.057 | 3.15 ± 0.039
VSQQPLSRGYTCPGLSL [ECM29] | 3.02 ± 0.056 | 2.97 ± 0.04 | 3.02 ± 0.051 | 2.93 ± 0.044
SQLAQVAAFVNNYPNVE [BRR2] | 2.33 ± 0.064 | 2.63 ± 0.068 | 2.68 ± 0.067 | 2.76 ± 0.051
DLMDEELRKHAQKRVSN [SKI6] | 3.38 ± 0.16 | 3.45 ± 0.11 | 2.8 ± 0.085 | 3.21 ± 0.077
DDPLENMFGDYSNEPFN [SNF6] | 2.98 ± 0.087 | 2.81 ± 0.069 | 3.26 ± 0.085 | 3.16 ± 0.058
LRKIQALRDVKNNNNAN [GAL11] | 3.05 ± 0.077 | 2.87 ± 0.097 | 3.15 ± 0.1 | 3.11 ± 0.071
ENGQRDLDRIAAQTLEE [RPS19A] | 3.2 ± 0.084 | 3.16 ± 0.086 | 3.28 ± 0.097 | 3.19 ± 0.093
LELTTGATYRGKLVESE [SMD3] | 3.29 ± 0.079 | 3.26 ± 0.084 | 2.94 ± 0.11 | 3.38 ± 0.057
LSGVSNSMDMVDGMAKV [RGR1] | 3.48 ± 0.11 | 3.29 ± 0.11 | 3.44 ± 0.13 | 3.34 ± 0.064
FVKFLSKKGSLENNIRE [RPL10] | 3.32 ± 0.18 | 3.32 ± 0.16 | 3.11 ± 0.076 | 3.3 ± 0.057
QLDLTGIFLHGKIPTLK [PRP8] | 2.39 ± 0.078 | 1.43 ± 0.058 | 1.58 ± 0.089 | 1.36 ± 0.046
DYRPAEETEAQAEPVEA [RPS3] | 2.93 ± 0.075 | 3.26 ± 0.065 | 3.14 ± 0.038 | 3.17 ± 0.052
GMGGGMPDMNEMMKMMQ [SRP54] | 3.17 ± 0.21 | 3.51 ± 0.23 | 3.58 ± 0.083 | 3.35 ± 0.081
IHLYMLTFHTLKKANII [YLR018C/POM34] | 1.31 ± 0.051 | 1.27 ± 0.06 | 1.21 ± 0.12 | 1.09 ± 0.042
EDVDDEELDITPLFPID [IRR1] | 2.99 ± 0.19 | 3.36 ± 0.15 | 3 ± 0.1 | 2.95 ± 0.075
QEASQVTFIFGELKRGN [MED11] | 2.07 ± 0.062 | 2.75 ± 0.052 | 2.75 ± 0.066 | 2.6 ± 0.043
DKINKYSLIRETNGYDP [SNF5] | 1.51 ± 0.086 | 1.62 ± 0.12 | 1.92 ± 0.2 | 1.23 ± 0.19
LEDMVFPTEIVGKRVRY [RPS7B] | 1.57 ± 0.16 | 1.76 ± 0.088 | 2.5 ± 0.21 | 2.69 ± 0.055
RTAKAYLKVSEEEIKKF [PRP8] | 2.98 ± 0.057 | 3.11 ± 0.075 | 3.12 ± 0.053 | 3.26 ± 0.049
EVAVPDRVAKVLTYPEK [RPO31] | 2.97 ± 0.075 | 3.06 ± 0.1 | 2.88 ± 0.078 | 3.23 ± 0.078
GRMDMTRLYDYEIRDID [SSN2] | 3.29 ± 0.24 | 2.94 ± 0.15 | 3.38 ± 0.074 | 3.36 ± 0.096
KKAVVKGTNGKKALKVR [RPL25] | 2.84 ± 0.094 | 2.24 ± 0.078 | 1.91 ± 0.11 | 2.75 ± 0.063
REIQIDAVLKIFSFHQD [SRB8] | 3.27 ± 0.08 | 3.12 ± 0.09 | 3.06 ± 0.052 | 3.04 ± 0.04
LETEQLSSELDSNKTLL [SMC2] | 3.35 ± 0.071 | 3.32 ± 0.082 | 3.26 ± 0.05 | 3.31 ± 0.049
FYSKNRLLITGTPLQNN [ISW2] |  | 1.39 ± 0.17 |  | 
VANSPNKRLDVIDGKLP [YDL088C/ASM4] | 3.03 ± 0.068 | 2.8 ± 0.067 | 2.42 ± 0.094 | 2.11 ± 0.058
MATNKIETLDPALIRPG [RPT2] | 3.23 ± 0.1 | 3.31 ± 0.12 | 2.96 ± 0.081 | 3 ± 0.075

Sequence | protein stability index (doa10∆) | protein stability index (pdr5∆) | protein stability index (san1∆) | protein stability index (ubr1∆)
DSFENYFNQLKPYYFSN [RPN12] | 2.66 ± 0.083 | 2.95 ± 0.1 | 2.97 ± 0.058 | 3.02 ± 0.056
PYAQKPLQGIFHNAVFN [QCR8] | 2.75 ± 0.057 | 2.52 ± 0.046 | 2.35 ± 0.045 | 2.57 ± 0.038
SDDQQEAVELVIGLDSE [YML103C/NUP188] | 2.9 ± 0.17 | 3.54 ± 0.12 | 3.39 ± 0.12 | 3.38 ± 0.045
YSEHLKPYDINVVLVTN [DIS3] | 1.77 ± 0.071 | 2.98 ± 0.094 | 2.86 ± 0.066 | 2.47 ± 0.055
PGKGILTTAREHHSSVK [FAS2] | 3.07 ± 0.087 | 3.32 ± 0.076 | 3.17 ± 0.049 | 3.11 ± 0.067
AISTDKINPFGFEQVKI [RRI2] | 2.75 ± 0.056 | 2.94 ± 0.05 | 2.72 ± 0.061 | 2.86 ± 0.061
AESEAITVTAKQQPTMQ [SWI3] | 3.14 ± 0.083 | 3.22 ± 0.063 | 2.88 ± 0.071 | 3.04 ± 0.035
DSYLILDTLPSEFDSRV [RPT5] | 2.83 ± 0.09 | 3.48 ± 0.12 | 3.23 ± 0.062 | 3.1 ± 0.036
VQGLLQNAAANAEAKGL [RPL17A] | 2.3 ± 0.094 | 2.76 ± 0.1 | 2.06 ± 0.1 | 2.4 ± 0.12
VQVRSVMDPITSKRKAE [DIS3] | 2 ± 0.13 | 2.41 ± 0.13 | 2.92 ± 0.079 | 2.79 ± 0.12
DSFSVPNRLVKELQYDN [PRE2] | 3.02 ± 0.18 | 2.94 ± 0.24 | 3.09 ± 0.11 | 3.37 ± 0.29
DSSTTSSNSQQSTPQPD [ITC1] | 3.04 ± 0.046 | 2.85 ± 0.048 | 2.69 ± 0.044 | 2.95 ± 0.038
EEREAAASKVKLEEESK [RPC53] | 3.29 ± 0.081 | 3.43 ± 0.095 | 3.37 ± 0.069 | 3.25 ± 0.063
SLYTNTSRKALEEVSLK [RPL3] |  | 2.38 ± 0.13 | 2.33 ± 0.14 | 1.83 ± 0.19
LTCSLYELYINKLTILG [IRR1] | 1.36 ± 0.032 | 1.36 ± 0.04 | 1.34 ± 0.059 | 1.48 ± 0.045
IYNNIVSNIEGILDEIM [RGR1] | 2.72 ± 0.08 | 2.09 ± 0.066 | 2.15 ± 0.098 | 2.46 ± 0.05
VSPAFRVQVGDIVTVGQ [RPS11A] | 2.49 ± 0.091 | 2.96 ± 0.093 | 2.55 ± 0.14 | 2.42 ± 0.078
VTDKYTAKKTNRSAYDS [YDL088C/ASM4] | 2.81 ± 0.089 | 3.26 ± 0.081 | 2.96 ± 0.14 | 2.79 ± 0.043
IFQAKRNSNPENTVGLI [RPN10] | 3.17 ± 0.1 | 3.27 ± 0.087 | 2.92 ± 0.074 | 3.21 ± 0.11
QIQLAESELSLLEETQA [SMC4] | 2.69 ± 0.066 | 3.25 ± 0.063 | 2.71 ± 0.095 | 3.05 ± 0.052
NLKQANNVAYGKKRFRV [SMC4] | 2.41 ± 0.11 | 2.62 ± 0.077 | 2.09 ± 0.095 | 2.31 ± 0.054
QNPLNKSQNTALPSTHK [SIR4] | 2.62 ± 0.048 | 2.88 ± 0.049 | 2.33 ± 0.058 | 2.76 ± 0.037
LFEIVSNADTNQNSDMK [SRB8] | 2.51 ± 0.29 | 2.87 ± 0.29 | 2.85 ± 0.16 | 
TFTIQLLKLTKVFIRES [YML103C/NUP188] | 2.17 ± 0.063 | 3.12 ± 0.08 | 2.46 ± 0.086 | 2.69 ± 0.12
SGGEREIQRTMLELLNQ [RPT2] | 3.46 ± 0.15 | 3.74 ± 0.2 |  | 3.15 ± 0.18
ESLTFNEFQLQWGKYQT [SWI1] | 2.86 ± 0.049 | 2.93 ± 0.047 | 2.67 ± 0.045 | 2.91 ± 0.034
